According to PMC8126939, “The TBC1D31/praja2 complex controls primary ciliogenesis through PKA‐directed OFD1 ubiquitylation” (The EMBO Journal, 2021):
Numbering of substitutions follows the chain as printed. Names and notes keep the numbering of the source.

T1: GST-praja2_(550–610) (human, UniProt O43164 550-610, fluorescent dye on primary amines (NHS-ester labelling))
T1 construct: praja2 (PJA2), human, residues 550-610; The results call P1-P3 synthetic peptides; the methods describe recombinant GST fusions; also called P2; source: recombinant, purified (GST Trap, Superdex 75 gel filtration)
T1 sequence (looked up): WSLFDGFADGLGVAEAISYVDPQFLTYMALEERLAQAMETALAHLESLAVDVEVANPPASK

T2: GST-praja2_(530–570) (human, UniProt O43164 530-570, fluorescent dye on primary amines (NHS-ester labelling))
T2 construct: praja2 (PJA2), human, residues 530-570; The results call P1-P3 synthetic peptides; the methods describe recombinant GST fusions; also called P1; source: recombinant, purified (GST Trap, Superdex 75 gel filtration)
T2 chain (looked up): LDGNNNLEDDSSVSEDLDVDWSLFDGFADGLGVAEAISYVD

T3: GST-praja2_(530–570) (human, UniProt O43164 530-570, fluorescent dye on primary amines (NHS-ester labelling))
T3 chain: T2 chain (looked up)

B1: peptide of the C-terminus segment of TBC1D31 (peptide)
peptide: WDTTGQNLIKKVRNLRQRLTARARHRCQTPHLLAA
notes: TBC1D31, human, C-terminus segment; also called WA35 TBC1D31; wild-type TBC1D31 peptide; source: synthetic peptide (bought: Shanghai Apeptide Co., Ltd)
B2: double AA mutant TBC1D31 peptide (peptide)
peptide: B1 peptide with R13A, R16A
notes: TBC1D31, human, C-terminus segment peptide with R948A and R951A; also called TBC1D31AA; R948A-R951A; source: synthetic peptide (bought: Shanghai Apeptide Co., Ltd)

Legend:
GST-praja2_(550–610) = biological target: T1, GST-praja2_(550–610); test: MST; Monolith NT 115; GST-praja2 fragments labelled with NHS-ester dye, TBC1D31 peptides titrated (16-point 1:1 dilution); 25°C, 20 mM NaP, 200 mM NaCl, 1 mM DTT, 0.05% Tween-20, pH 7.4; conditions: both partners purified
GST-praja2_(530–570) [1] = biological target: T2, GST-praja2_(530–570); test: as above; conditions: both partners purified
GST-praja2_(530–570) [2] = biological target: T3, GST-praja2_(530–570); test: MST

Binder	Kd (GST-praja2_(550–610)) [µM]	Kd (GST-praja2_(530–570) [1]) [µM]	binding result (GST-praja2_(530–570) [1])	Kd (GST-praja2_(530–570) [2]) [µM]
B1	80	37	–	–
B2	–	–	binds	~65
